What was measured:
[1] = molecular target: T1, ADP-HSP70 (ADP-enriched HSP70, expressed in SF9 cells) (human, UniProt P0DMV8 1-641, limits assumed); assay: ELISA, HSP70 coated
Experimental: (§1) HSP70 was expressed in SF9 cells. Affinity chromatography using resins selective for ADP or ATP-binding proteins were used to enrich bulk preparations of the correspondingly bound HSP70 recombinant protein. Protein concentrations, determined after elution, were measured so that equal concentrations could be used in subsequent assays. For BLI-based assays, antibodies and reagents were diluted out onto microwell plates and loaded into the instrument. Antibodies being tested were immobilized onto dip-and-read sensors and then observed for kinetics during binding to ATP or ADP-enriched HSP70. For ELISA, the relevant enriched HSP70 proteins were directly coated onto ELISA plate wells overnight. Test antibodies were then serially diluted across the plate wells, and detected using an appropriate secondary antibody-HRP conjugate. The plates were developed using a TMB substrate, and the O.D. stabilized using an acid stop solution.
(§2) ELISA data, shown in FIG. 18, depicted the same trend, in which 77A had higher maximal absorbance with the ADP-enriched HSP70 than the ATP-enriched HSP70.

[2] = molecular target: T2, ATP-HSP70 (ATP-enriched HSP70, expressed in SF9 cells) (human, UniProt P0DMV8 1-641, limits assumed); assay: ELISA, HSP70 coated
T2 sequence (P0DMV8 whole entry): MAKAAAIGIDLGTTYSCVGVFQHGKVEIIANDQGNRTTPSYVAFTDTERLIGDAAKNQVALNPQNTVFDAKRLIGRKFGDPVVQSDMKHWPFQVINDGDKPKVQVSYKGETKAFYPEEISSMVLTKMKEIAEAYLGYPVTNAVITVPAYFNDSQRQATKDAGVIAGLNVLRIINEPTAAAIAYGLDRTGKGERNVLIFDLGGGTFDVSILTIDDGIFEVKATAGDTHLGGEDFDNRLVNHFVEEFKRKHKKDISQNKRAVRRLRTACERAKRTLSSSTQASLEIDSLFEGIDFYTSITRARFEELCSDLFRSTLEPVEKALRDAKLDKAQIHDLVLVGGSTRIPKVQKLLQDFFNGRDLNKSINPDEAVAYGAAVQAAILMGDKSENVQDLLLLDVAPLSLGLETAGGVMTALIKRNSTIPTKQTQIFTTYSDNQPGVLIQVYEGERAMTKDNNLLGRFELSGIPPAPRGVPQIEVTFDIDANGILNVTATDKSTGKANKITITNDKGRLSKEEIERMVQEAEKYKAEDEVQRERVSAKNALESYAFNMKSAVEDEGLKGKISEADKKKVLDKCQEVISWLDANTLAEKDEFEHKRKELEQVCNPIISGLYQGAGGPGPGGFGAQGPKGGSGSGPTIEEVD
Experimental: as §1, §2

[3] = molecular target: T1, ADP-HSP70 (ADP-enriched HSP70, …); assay: BLI, 77A on sensor, ADP-HSP70 at 150 (µM)
Experimental: as §1

[4] = molecular target: T1, ADP-HSP70 (ADP-enriched HSP70, …); assay: BLI, 77A on sensor
Experimental: as §1

[5] = molecular target: T1, ADP-HSP70 (ADP-enriched HSP70, …); assay: BLI, 77A on sensor, ADP-HSP70 at 75 (µM)
Experimental: as §1

504 = molecular target: T3, 504 (N-terminal GFP fusion; GFP is not in the letters); assay: immunoprecipitation with 77A from extracts of HSP70 KO 293T cells, Western blot with anti-GFP [panel B]
T3 construct: not shown: N-terminal GFP fusion partner and any linker

[6] = molecular target: T1, ADP-HSP70 (ADP-enriched HSP70, …); assay: BLI, 77A on sensor, ADP-HSP70 at 37.5 (µM)
Experimental: as §1

[7] = molecular target: T2, ATP-HSP70 (ATP-enriched HSP70, …); assay: BLI, 77A on sensor, ATP-HSP70 at 75 (µM)
Experimental: as §1

[8] = molecular target: T2, ATP-HSP70 (ATP-enriched HSP70, …); assay: BLI, 77A on sensor, ATP-HSP70 at 300 (µM)
Experimental: as §1

murine HSP70 = murine HSP70 (murine, UniProt P17879 1-642); assay: Octet (BLI)
murine HSP70, sequence (P17879 other isoform, or with tags, fused parts or gaps): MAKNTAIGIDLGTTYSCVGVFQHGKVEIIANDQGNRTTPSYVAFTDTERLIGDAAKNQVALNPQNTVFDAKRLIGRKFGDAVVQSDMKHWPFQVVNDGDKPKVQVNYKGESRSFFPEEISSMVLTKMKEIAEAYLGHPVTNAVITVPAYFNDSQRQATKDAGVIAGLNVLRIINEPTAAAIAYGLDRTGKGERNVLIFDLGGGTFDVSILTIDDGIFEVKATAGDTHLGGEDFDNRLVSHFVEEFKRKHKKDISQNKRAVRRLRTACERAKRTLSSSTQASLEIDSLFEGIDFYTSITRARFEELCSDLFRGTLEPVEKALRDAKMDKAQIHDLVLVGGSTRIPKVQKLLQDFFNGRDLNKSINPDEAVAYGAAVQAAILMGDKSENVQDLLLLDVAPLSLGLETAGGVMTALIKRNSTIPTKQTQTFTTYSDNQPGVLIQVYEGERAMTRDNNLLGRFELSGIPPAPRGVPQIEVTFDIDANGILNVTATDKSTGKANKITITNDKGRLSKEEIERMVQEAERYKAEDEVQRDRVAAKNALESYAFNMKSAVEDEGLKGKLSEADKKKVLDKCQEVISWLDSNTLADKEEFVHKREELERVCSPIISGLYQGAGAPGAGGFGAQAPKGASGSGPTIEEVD

[9] = molecular target: T4, human HSP70 made in Sf9 insect cells (human, UniProt P0DMV8 1-641, limits assumed); assay: Octet (BLI)
T4 construct: also called HSP70 made in eukaryotic insect Sf9 cells
T4 sequence (P0DMV8 whole entry): as the sequence (P0DMV8 whole entry) above

[10] = molecular target: human HSP70 made in E. coli (human, UniProt P0DMV8 1-641, limits assumed); assay: Octet (BLI)
human HSP70 made in E. coli, sequence (P0DMV8 whole entry): as above

[11] = molecular target: T5, HSP70 (human HSP70; the antigen of the binning, humanization and variant binding assays) (human, UniProt P0DMV8 1-641, limits assumed); assay: BLI, antibody on sensor
T5 construct: also called hu HSP70
T5 sequence (P0DMV8 whole entry, change not shown): as the sequence (P0DMV8 whole entry) above
In short: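 Antibodies immobilized on biolayer interferometry sensors, baseline taken, then dipped into HSP70 antigen solution or buffer. Binding followed as interference-pattern shift; kinetic constants derived by modeling from the signals and reagent concentrations.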

[12] = molecular target: T2, ATP-HSP70 (ATP-enriched HSP70, …); assay: BLI, 77A on sensor, ATP-HSP70 at 150 (µM)
Experimental: as §1

[13] = molecular target: T1, ADP-HSP70 (ADP-enriched HSP70, …); assay: BLI, 77A on sensor, ADP-HSP70 at 300 (µM)
Experimental: as §1

T1 sequence (P0DMV8 whole entry): as above

B1: 77A antibody (clone 77A, murine anti-HSP70 monoclonal antibody) (antibody, V domains shown)
VH: QIQLVQSGPELKKPGETVKISCKASGYTFTNYGMNWVKQAPGKGLKWMGWINTYTGEPTYADDFKGRFAFSLETSATTAYLQINNLKNEDTATYFCARYDHAMDYWGQGTSVTVSS
VL: DIVMSQSPSSLAVSAGEKVTMSCKSSQSLLNSGTRKNYLAWYQQKPGQSPKLLIYWTSTRESGVPDRFTGSGSGTDFTLTINSVQAEDLAVYYCKQSYTLYTFGGGTKLEIK
notes: murine hybridoma antibody; its isotype control is IgG2B; also called mAb 77A
[1]
  EC50: 0.737 nM
[2]
  EC50: 1.77 nM
[3]
  Kd: 5.42 nM
  koff: 0.000292 s⁻¹
  kon: 53800 M⁻¹ s⁻¹
[4]
  fold greater affinity (KD) than ATP-enriched HSP70: ≥ 4 fold
[5]
  Kd: 5.42 nM
  koff: 0.000292 s⁻¹
  kon: 53800 M⁻¹ s⁻¹
504
  binding result: no binding
[6]
  Kd: 5.42 nM
  koff: 0.000292 s⁻¹
  kon: 53800 M⁻¹ s⁻¹
[7]
  Kd: 20.2 nM
  koff: 0.00038 s⁻¹
  kon: 18800 M⁻¹ s⁻¹
[8]
  Kd: 20.2 nM
  koff: 0.00038 s⁻¹
  kon: 18800 M⁻¹ s⁻¹
Murine HSP70
  Kd: 988 nM
[9]
  Kd: < 0.001 nM
[10]
  Kd: 0.85 nM
[11]
  Kd: 1.2 nM
  koff: 8.08e-05 s⁻¹
  kon: 67400 M⁻¹ s⁻¹
[12]
  Kd: 20.2 nM
  koff: 0.00038 s⁻¹
  kon: 18800 M⁻¹ s⁻¹
[13]
  Kd: 5.42 nM
  koff: 0.000292 s⁻¹
  kon: 53800 M⁻¹ s⁻¹

From US20250084155A1 (University of Texas, published 2025)
